Molecular target: Galanin receptor of rat ileum (rat)
Test: cell-based or functional assay

Q: How did the Agonism (contraction of rat ileum), galanin 0.1 µM turn out when Galanin (peptide) was run?
A: Its Agonism (contraction of rat ileum), galanin 0.1 µM is 100%.

Q: What about the Agonism, average of two preparations, galanin 0.1 µM of the same substance?
A: The Agonism, average of two preparations, galanin 0.1 µM was 100%.
